Target: T1, Codanin-1-C (fragment of Codanin-1, amino acids P800-S1227) (human, UniProt Q8IWY9 800-1227)
T1 construct: Codanin-1, amino acids P800-S1227; Plasmid pET28a 6His z-basic TEV CDAN1^P800-S1227; the text speaks only of the hexahistidine tag being cleaved with TEV; that z-basic goes with it follows from the order in the plasmid's name; also called CDAN1^P800-S1227; source: E. coli, purified (Ni2+-NTA agarose, tag cleaved with His-TEV protease); not shown: His6, N-terminal, cleaved; z-basic, N-terminal, …
T1 sequence (looked up): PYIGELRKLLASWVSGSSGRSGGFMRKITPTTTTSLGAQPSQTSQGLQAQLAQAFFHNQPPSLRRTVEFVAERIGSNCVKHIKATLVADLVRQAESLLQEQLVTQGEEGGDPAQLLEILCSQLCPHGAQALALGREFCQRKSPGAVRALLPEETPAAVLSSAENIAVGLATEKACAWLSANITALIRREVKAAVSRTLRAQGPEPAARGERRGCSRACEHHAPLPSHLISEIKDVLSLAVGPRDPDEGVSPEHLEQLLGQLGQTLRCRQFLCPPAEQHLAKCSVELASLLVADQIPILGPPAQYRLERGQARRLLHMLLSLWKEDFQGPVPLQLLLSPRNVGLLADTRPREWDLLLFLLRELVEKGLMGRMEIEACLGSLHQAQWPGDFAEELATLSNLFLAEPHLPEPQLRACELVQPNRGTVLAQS
Experiment: pull-down + SEC; purified His6-C15ORF41 re-bound to Ni2+-NTA agarose, excess of purified Codanin-1-C passed over, eluted with 400 mM imidazole, Superdex 200 16/60 in 50 mM Tris pH 7.5, 500 mM NaCl, 5% glycerol, 0.5 mM TCEP
Conditions: both partners purified

B1: His6-C15ORF41 bearing the solubilising mutations V18M, C223S and W237R (natural protein, human, UniProt Q9Y2V0 1-281, looked up)
chain: MILTKAQYDEIAQCLVSMPPTRQSLRKLKQRFPSQSQATLLSIFSQEYQKHIKRTHAKHHTSEAIESYYQRYLNGVVKNGAAPVLLDLANEVDYAPSLMARLILERFLQEHEETPPSKSIINSMLRDPSQIPDGVLANQVYQCIVNDCCYGPLVDCIKHAIGHEHEVLLRDLLLEKNLSFLDEDQLRAKGYDKTPDFILQVPVAVEGHIIHWIESKASFGDESSHHAYLHDQFWSYRNRFGPGLVIYWYGFIQELDCNRERGILLKACFPTNIVTLCHSIA
notes: C15ORF41 (CDIN1) with the extra mutations V18M, C223S and W237R; Plasmid pNIC28 Bsa4 6His Tev C15ORF41^(V18M C223S W237R), a gift from J. Newman (SGC Oxford); preparations held bacterial ArnA as a contaminant; also called C15ORF41^(V18M C223S W237R); source: E. coli, purified (Ni2+-NTA agarose, dialysis); not shown: His6, N-terminal, kept
B1: binds.
